Assay results published in IntAct's records for PubMed 17828277.

B1: CAP-Gly domain-containing linker protein 1 (Homo sapiens), P30622-1 (parent)
chain: MSMLKPSGLKAPTKILKPGSTALKTPTAVVAPVEKTISSEKASSTPSSETQEEFVDDFRVGERVWVNGNKPGFIQFLGETQFAPGQWAGIVLDEPIGKNDGSVAGVRYFQCEPLKGIFTRPSKLTRKVQAEDEANGLQTTPASRATSPLCTSTASMVSSSPSTPSNIPQKPSQPAAKEPSATPPISNLTKTASESISNLSEAGSIKKGERELKIGDRVLVGGTKAGVVRFLGETDFAKGEWCGVELDEPLGKNDGAVAGTRYFQCQPKYGLFAPVHKVTKIGFPSTTPAKAKANAVRRVMATTSASLKRSPSASSLSSMSSVASSVSSRPSRTGLLTETSSRYARKISGTTALQEALKEKQQHIEQLLAERDLERAEVAKATSHVGEIEQELALARDGHDQHVLELEAKMDQLRTMVEAADREKVELLNQLEEEKRKVEDLQFRVEEESITKGDLETQTKLEHARIKELEQSLLFEKTKADKLQRELEDTRVATVSEKSRIMELEKDLALRVQEVAELRRRLESNKPAGDVDMSLSLLQEISSLQEKLEVTRTDHQREITSLKEHFGAREETHQKEIKALYTATEKLSKENESLKSKLEHANKENSDVIALWKSKLETAIASHQQAMEELKVSFSKGLGTETAEFAELKTQIEKMRLDYQHEIENLQNQQDSERAAHAKEMEALRAKLMKVIKEKENSLEAIRSKLDKAEDQHLVEMEDTLNKLQEAEIKVKELEVLQAKCNEQTKVIDNFTSQLKATEEKLLDLDALRKASSEGKSEMKKLRQQLEAAEKQIKHLEIEKNAESSKASSITRELQGRELKLTNLQENLSEVSQVKETLEKELQILKEKFAEASEEAVSVQRSMQETVNKLHQKEEQFNMLSSDLEKLRENLADMEAKFREKDEREEQLIKAKEKLENDIAEIMKMSGDNSSQLTKMNDELRLKERDVEELQLKLTKANENASFLQKSIEDMTVKAEQSQQEAAKKHEEEKKELERKLSDLEKKMETSHNQCQELKARYERATSETKTKHEEILQNLQKTLLDTEDKLKGAREENSGLLQELEELRKQADKAKAAQTAEDAMQIMEQMTKEKTETLASLEDTKQTNAKLQNELDTLKENNLKNVEELNKSKELLTVENQKMEEFRKEIETLKQAAAQKSQQLSALQEENVKLAEELGRSRDEVTSHQKLEEERSVLNNQLLEMKKRESKFIKDADEEKASLQKSISITSALLTEKDAELEKLRNEVTVLRGENASAKSLHSVVQTLESDKVKLELKVKNLELQLKENKRQLSSSSGNTDTQADEDERAQESQIDFLNSVIVDLQRKNQDLKMKVEMMSEAALNGNGDDLNNYDSDDQEKQSKKKPRLFCDICDCFDLHDTEDCPTQAQMSEDPPHSTHHGSRGEERPYCEICEMFGHWATNCNDDETF
B2: Microtubule-associated protein RP/EB family member 1 (Homo sapiens), Q15691 (parent)
chain: MAVNVYSTSVTSDNLSRHDMLAWINESLQLNLTKIEQLCSGAAYCQFMDMLFPGSIALKKVKFQAKLEHEYIQNFKILQAGFKRMGVDKIIPVDKLVKGKFQDNFEFVQWFKKFFDANYDGKDYDPVAARQGQETAVAPSLVAPALNKPKKPLTSSSAAPQRPISTQRTAAAPKAGPGVVRKNPGVGNGDDEAAELMQQVNVLKLTVEDLEKERDFYFGKLRNIELICQENEGENDPVLQRIVDILYATDEGFVIPDEGGPQEEQEEY

Variants of: B1
Details: with dctn1_human DCTN1, Q14203
Target sequence in this assay (Q14203 whole entry): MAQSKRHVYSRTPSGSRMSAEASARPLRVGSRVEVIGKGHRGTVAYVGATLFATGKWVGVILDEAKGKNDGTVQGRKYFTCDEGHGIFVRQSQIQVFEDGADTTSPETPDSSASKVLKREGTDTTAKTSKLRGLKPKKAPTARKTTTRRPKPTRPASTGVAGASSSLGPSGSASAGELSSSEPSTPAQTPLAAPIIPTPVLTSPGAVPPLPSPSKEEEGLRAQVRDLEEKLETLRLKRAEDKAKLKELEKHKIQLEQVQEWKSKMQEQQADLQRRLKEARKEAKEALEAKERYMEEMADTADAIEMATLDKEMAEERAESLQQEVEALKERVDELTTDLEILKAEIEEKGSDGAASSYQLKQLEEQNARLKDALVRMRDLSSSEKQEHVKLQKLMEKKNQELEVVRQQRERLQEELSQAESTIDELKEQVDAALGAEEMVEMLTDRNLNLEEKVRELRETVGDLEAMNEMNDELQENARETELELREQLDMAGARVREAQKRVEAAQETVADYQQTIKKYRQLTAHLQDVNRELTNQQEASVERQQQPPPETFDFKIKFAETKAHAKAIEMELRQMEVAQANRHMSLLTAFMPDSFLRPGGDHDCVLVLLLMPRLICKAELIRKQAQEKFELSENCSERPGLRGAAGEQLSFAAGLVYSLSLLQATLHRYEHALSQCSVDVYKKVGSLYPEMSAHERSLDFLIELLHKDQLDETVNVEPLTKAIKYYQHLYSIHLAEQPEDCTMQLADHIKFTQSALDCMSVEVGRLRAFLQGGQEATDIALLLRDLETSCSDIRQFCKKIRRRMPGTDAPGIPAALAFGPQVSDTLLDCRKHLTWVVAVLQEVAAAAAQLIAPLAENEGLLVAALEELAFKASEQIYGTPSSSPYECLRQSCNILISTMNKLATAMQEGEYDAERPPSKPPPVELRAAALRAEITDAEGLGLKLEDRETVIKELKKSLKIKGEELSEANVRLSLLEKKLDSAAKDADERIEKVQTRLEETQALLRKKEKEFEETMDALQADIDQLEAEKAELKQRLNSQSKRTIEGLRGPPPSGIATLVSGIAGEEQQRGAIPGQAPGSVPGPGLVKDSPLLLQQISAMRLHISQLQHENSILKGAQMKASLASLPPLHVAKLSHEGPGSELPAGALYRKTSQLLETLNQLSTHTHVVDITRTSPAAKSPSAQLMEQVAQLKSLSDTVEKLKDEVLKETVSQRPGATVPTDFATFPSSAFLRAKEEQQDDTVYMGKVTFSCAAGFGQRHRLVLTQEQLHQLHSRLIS

| effect of a mutation on the interaction | Variant |
| --- | --- |
| decreasing interaction strength | I1410D |
| decreasing interaction strength | I1410H |

Variants of: B2
Details: with dctn1_human DCTN1, Q14203
Target sequence in this assay (Q14203 whole entry): as above

| effect of a mutation on the interaction | Variant |
| --- | --- |
| decreasing interaction strength | Y268G |
| decreasing interaction strength | Y268I |
